Data published in US20080152587A1 (Amgen, published 2008).
Numbering of substitutions follows the chain as printed.

T1: murine uPAR (form not stated) (mouse, UniProt P35456 24-297, limits assumed)
T1 construct: also called mouse uPAR
T1 sequence (looked up): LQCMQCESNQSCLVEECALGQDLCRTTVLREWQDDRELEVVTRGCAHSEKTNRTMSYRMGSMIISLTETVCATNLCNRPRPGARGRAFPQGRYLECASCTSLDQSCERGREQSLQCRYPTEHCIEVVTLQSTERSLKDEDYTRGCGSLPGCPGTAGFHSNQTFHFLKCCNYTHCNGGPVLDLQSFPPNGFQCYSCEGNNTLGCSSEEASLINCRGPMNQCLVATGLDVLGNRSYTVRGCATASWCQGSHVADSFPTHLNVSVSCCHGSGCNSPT

T2: human Ly6e with a myc tag, expressed in HEK293T cells (human, UniProt Q16553 21-101)
T2 construct: whole, on cells; not shown: myc tag fused on the molecule
T2 sequence (looked up): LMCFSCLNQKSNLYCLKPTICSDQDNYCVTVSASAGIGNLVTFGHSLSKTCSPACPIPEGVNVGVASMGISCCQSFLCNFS

T3: mouse uPAR on the surface of NCTC L929 cells (mouse, UniProt P35456 24-298)
T3 construct: whole, on cells; also called cell surface mouse uPAR
T3 sequence (looked up): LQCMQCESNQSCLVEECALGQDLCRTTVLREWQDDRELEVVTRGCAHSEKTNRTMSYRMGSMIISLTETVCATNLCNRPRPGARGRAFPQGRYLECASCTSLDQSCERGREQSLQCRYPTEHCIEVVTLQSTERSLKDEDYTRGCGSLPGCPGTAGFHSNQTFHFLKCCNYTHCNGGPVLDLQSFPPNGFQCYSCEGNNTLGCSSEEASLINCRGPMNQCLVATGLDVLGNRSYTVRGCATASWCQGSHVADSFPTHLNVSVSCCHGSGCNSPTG

B1: anti-uPAR monoclonal antibody 4.50.1 (antibody, V domains shown)
VH: QVQLVESGGGVVQPGRSLRLSCAASGFTFSSYGMHWVRQAPGKGLEWVAVIWYDGSNKDYADSVKGRFTISRDNSKNTLYLQMNSLRAEDTAVYYCARDMIVVVITYAFDIWGQGTMVTVSS
VL: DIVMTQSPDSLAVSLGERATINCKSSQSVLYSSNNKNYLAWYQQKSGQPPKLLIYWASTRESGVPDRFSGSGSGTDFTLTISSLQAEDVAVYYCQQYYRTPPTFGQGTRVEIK
notes: also called 4.50.2
B2: anti-uPAR monoclonal antibody 4.13.1 (antibody, V domains shown)
VH: EVQLLESGGGLVQPGGSLRLSCAASGFTFSSYAMSWVRQAPGKGLEWVLGISGSGGSTYYADSVKGRFTISRDNSKNTLYLQMNSLRAEDTAVYYCAKDGYGDYVGWYFDLWGRGTLVTVSS
VL: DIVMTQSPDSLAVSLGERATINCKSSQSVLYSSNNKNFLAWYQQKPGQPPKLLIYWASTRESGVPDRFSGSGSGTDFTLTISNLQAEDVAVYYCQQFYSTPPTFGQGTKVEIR
notes: also called 4.13.2
B3: anti-uPAR monoclonal antibody 3.8.3 (antibody, V domains shown)
VH: EVQLVESGGGLVQPGGSLRLSCAASGFTFSSYWMSWVRQAPGKGLEWVANIKQHGSEKYYVDSVKGRFTISRDNAKNSLYLQMNSLRAEDTAVYYCAREEAYYYDNSGYYWYFDLWARGTLVTVSS
VL: DIQMTQSPSSVSASIGDRVTITCRASQGISSWLAWYQQKPGKTPKLLIYAASSLQSGVPSRFSGSGSGTDFTLTISSLQPEDFATYYCQQADSFPWTFGQGTKVEIK
B4: anti-uPAR monoclonal antibody 1.4.2 (antibody, V domains shown)
VH: EVQLVESGGGLVQPGGSLRLSCAASGFTFSSYDMHWVRQATGKGLEWVSAIGTAGDTYYPGSVKGRFTISRENAKNSLYLQMNSLRAGDTAVYYCAREGDYSNYFTMVRGVTYGMDVWGQGTTVTVSS
VL: DIQLTQSPSSLCASVGDRITITCRASQGISKYLAWFQQKPGKAPKSLIYGASSLQSGVPAKFSGSGSGTDFTLTISSLQPEDFATYYCQQYNSYPLTFGGGTKVEIK
B5: anti-uPAR monoclonal antibody 1.61.1 (antibody, V domains shown)
VH: B4 VH with M107R
VL: B4 VL with L4M, C12S, I19V, A60S
B6: anti-uPAR monoclonal antibody 1.100.1 (antibody, V domains shown)
VH: EVQLVESGGGLLQPGGSLRLSCAASGFTVRNNYMNWVRQAPGKGLEWVSVIYTGGSTYYADSVKGRFTISRDNSKNTLYLQMNSLRAEDTAVYYCAREGKLAGMDVWGQGTTVTVSS
VL: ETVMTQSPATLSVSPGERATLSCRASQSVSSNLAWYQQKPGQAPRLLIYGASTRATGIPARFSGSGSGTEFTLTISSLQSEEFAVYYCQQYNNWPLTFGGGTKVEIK
B7: anti-uPAR monoclonal antibody 1.113.2 (antibody, V domains shown)
VH: QVQLVESGGGVVQPGRSLRLSCAASGFTFSSYGMHWVRQAPGKGLEWVAVIWYDGSNKYYADSVKGRFTISRDNSKNTLYLQMNSLRAEDTAVYYCARDLAALYYYYGMHVWGQGTTVTVSS
VL: EIVMTQSPATLSVSPGERATLSCRASQSFSSNLAWYQQKPGQAPRLLIYGASTRATGIPARFSGSGSGTEFTLTISSLQSEDFAVYYCQQNNNWPRTFGQGTKVEIK
B8: anti-uPAR monoclonal antibody 1.41.1 (antibody, V domains shown)
VH: QVQLVESGGGVVQPGRSLRLSCAAPGFTFSSYGMHWVRQAPGKGLEWVAVIWYDGSQKYYADSVKGRFTISRDNSKNTLYLQMNSLRAEDTAVYYCARGMTYYYYYGMDVWGQGTTVTVSS
VL: B7 VL with T10I, F29V, N32K, A34D, N91Y

Molecular target: T4, human urokinase-type plasminogen activator receptor (uPAR, CD87), cell-bound (human, UniProt Q03405 23-305)
Test: cell-based or functional assay

T4 sequence (Q03405 23-305): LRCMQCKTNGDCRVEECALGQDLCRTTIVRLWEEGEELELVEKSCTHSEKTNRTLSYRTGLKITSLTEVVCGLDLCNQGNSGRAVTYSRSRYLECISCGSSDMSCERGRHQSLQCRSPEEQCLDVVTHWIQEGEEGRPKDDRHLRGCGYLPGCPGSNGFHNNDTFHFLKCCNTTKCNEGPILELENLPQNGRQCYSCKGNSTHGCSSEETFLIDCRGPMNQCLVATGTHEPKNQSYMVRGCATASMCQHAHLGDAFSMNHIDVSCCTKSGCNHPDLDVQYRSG

B1 and B2 cannot be ordered by “inhibition of plasminogen activation on U937 cells” value: > 90% for the first, > 90% for the second.

Molecular target: T5, soluble recombinant human uPAR/His6 (R&D Systems, Cat. # 807-UK-100) (human, UniProt Q03405 23-303)
T5 construct: range 1-303; Bought protein; also called soluble uPAR; hu-uPAR
Test: limited antigen ELISA, uPAR coat 20 ng/mL, sample 1:25
Description: (§1) ELISA plates were coated with a lower amount ofuPAR in comparison with the High Antigen Quantitation assay described below (320, 160, 80, 40 and 20 ng/mL). Samples containing one concentration of antibody (Ab) (1:25 dilution) were incubated overnight to allow Ab binding to approach equilibrium.

T5 sequence (Q03405 other isoform, or with tags, fused parts or gaps limits assumed, form in doubt): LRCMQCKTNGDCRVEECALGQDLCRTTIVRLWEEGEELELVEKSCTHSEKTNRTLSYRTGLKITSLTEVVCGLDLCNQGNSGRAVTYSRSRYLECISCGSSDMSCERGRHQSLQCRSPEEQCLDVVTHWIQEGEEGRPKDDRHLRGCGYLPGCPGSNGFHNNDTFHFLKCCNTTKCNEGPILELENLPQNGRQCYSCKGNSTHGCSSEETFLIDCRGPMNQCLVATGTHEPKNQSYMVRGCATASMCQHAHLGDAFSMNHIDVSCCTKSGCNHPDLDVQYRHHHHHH

In order of falling “LA at 20 ng/ml” value:
1. B3  0.67
2. B7  0.53
3. B5  0.27
4. B6  0.27
5. B8  0.27
6. B1  0.21
7. B4  0.16
8. B2  0.09

Molecular target: T6, cynomolgus monkey uPAR, cell-bound (cynomolgus monkey, UniProt Q9GK78 23-305)
T6 construct: whole, on cells; also called cyno-uPAR
Test: FACS, GeoMean; cynomolgus uPAR expressed on 293T cells; antibody concentration not given

T6 sequence (Q9GK78 23-305): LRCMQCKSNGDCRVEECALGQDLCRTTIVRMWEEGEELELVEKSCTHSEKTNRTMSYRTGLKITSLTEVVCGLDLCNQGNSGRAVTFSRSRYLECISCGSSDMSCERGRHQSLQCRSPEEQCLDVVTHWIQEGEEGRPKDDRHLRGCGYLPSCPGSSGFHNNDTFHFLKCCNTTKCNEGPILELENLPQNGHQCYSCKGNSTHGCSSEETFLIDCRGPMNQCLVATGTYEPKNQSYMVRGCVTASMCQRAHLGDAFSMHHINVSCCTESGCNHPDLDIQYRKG

B4: binds.
B5: binds.
B6: binds.
B7: binds.
B1: binds.
B8: binds.

Molecular target: T4, human urokinase-type plasminogen …
Test: FACS, B300.19 cells expressing human uPAR, anti-human gamma Cy5

In order of rising “gCy5 Geo Mean Pos Cells” value:
1. B2  28.2
2. B1  402
3. B4  419
4. B8  422
5. B3  451
6. B7  511
7. B6  521
8. B5  559

Molecular target: T5, soluble recombinant human uPAR/His6 …
Test: limited antigen ELISA, uPAR coat 80 ng/mL, sample 1:25
Description: as §1

In order of falling “LA at 80 ng/ml” value:
1. B3  2.57
2. B6  2.15
3. B5  1.99
4. B7  1.8
5. B8  1.48
6. B4  0.66
7. B1  0.64
8. B2  0.24

Molecular target: T5, soluble recombinant human uPAR/His6 …
Test: low resolution Biacore
Description: (§2) A high-density goat anti-human antibody surface over a CM5 Biacore™ chip was prepared using routine amine coupling. […] Each mAb was captured on a separate flow cell using a 30-second contact time at 10 μL/min followed by a 5-minute wash at a 100 μL/min flow rate for stabilization of the mAb baseline. […] All antigen samples were prepared in the running buffer.

In order of rising Kd:
1. B1  2.2 nM
2. B6  2.3 nM
3. B5  2.7 nM
4. B3  3.1 nM
5. B8  3.9 nM
6. B7  4.6 nM
7. B4  8.7 nM
8. B2  12.6 nM

Molecular target: T4, human urokinase-type plasminogen …
Test: cell-based or functional assay
Remark: another data set of the same source

In order of falling “Plasminogen activation inhibition (IC50, ug/ml)” value:
1. B7  0.775 µg/mL
2. B3  0.328 µg/mL
3. B8  0.181 µg/mL
4. B5  0.119 µg/mL
5. B1  0.104 µg/mL
6. B2  0.077 µg/mL
7. B4  0.075 µg/mL
8. B6  0.061 µg/mL

Molecular target: T1, murine uPAR (form not stated)
Test: summary column Murine X-reactivity

B3: no binding.
B4: no binding.
B5: no binding.
B6: no binding.
B7: no binding.
B1: no binding.
B2: no binding.
B8: no binding.

Molecular target: T4, human urokinase-type plasminogen …
Test: FACS, U937 cells, mAb 5 µg/ml on ice, alexa647 goat anti-human F(ab), not stripped
Description: A cell suspension containing 100,000 cells was pipetted into each well of a V-bottom plates in duplicate. Two V-bottom plates were prepared, one to be kept at 37° C. during internalization with antibody complex, and the other to be incubated at 4° C. Each of the eight uPAR mAbs was incubated with U937 cells at 5 μg/ml on ice for 15 min. Incubation on ice was necessary to prevent internalization of the primary mAbs. The cells were then washed with cold FACS buffer. Cells were subsequently incubated on ice in 100 μl of 5 μg/ml alexa647-labelled goat anti-humanF(ab) (Invitrogen catalogue number A21249) in cold FACS buffer for 15 min. This allowed the goat FAB bind to the bound uPAR mAbs without permitting any internalization. After a 15 minute incubation on ice, one plate was kept on ice, while the other plate was incubated at 37° C. for 1 hour.
Following the 1 hr incubation with the mAb-FAB complex, the cells were washed twice with cold 5% FACS buffer, and 200 μl of Tris(2-carboxyethyl)phosphine HCl (TCEP) was added to each well as a stripping agent. The plates were both incubated with TCEP on ice for 1 hour, followed by washing and resuspending with FACS buffer. 4 μl of 7-Amino-Actinomycin D (7AAD) was added to each well, followed by 10 min incubation on ice before FACS analysis was conducted.

In order of falling “geo mean cold - TCEP” value:
1. B1  42.1
2. B2  37.4

Molecular target: T4, human urokinase-type plasminogen …
Test: FACS competition with FITC-tc-uPA, line material
Excerpt: (§3) Briefly, murine fibroblast L929 cells (ATCC) were transfected to express human uPAR.

In order of rising “Human uPAR/uPA binding inhibition (%, line material)” value:
1. B1  67%
2. B4  69%
3. B5  69%
4. B3  70%
5. B8  74%
6. B7  75%
7. B6  78%
8. B2  78%

Molecular target: T2, human Ly6e with a myc tag, expressed in …
Test: FACS, HEK293T cells expressing Ly6e, supernatant 1:2
Description: The reactivity of the antibodies to the HEK293T transfected to express Ly6e was determined by FACS analysis, using 1:2 hybridoma supernatants, and probed with goat anti-human γ chain conjugated with Cy5 (2.5 mg/ml, Jackson Immune Research). Binding of an anti-myc antibody (10 μg/ml, Invitrogen) to the transfectants served as a positive control, and binding of this antibody to the (Ly6e negative) parental cells served as the negative control.

B3: no binding (tested: GeoMean ratio 1.95).
B4: no binding (tested: GeoMean ratio 1.95).
B5: no binding (tested: GeoMean ratio 1.95).
B6: no binding (tested: GeoMean ratio 1.95).
B7: no binding (tested: GeoMean ratio 1.95).
B1: binds.
B2: no binding (tested: GeoMean ratio 1.95).
B8: no binding (tested: GeoMean ratio 1.95).

Molecular target: T3, mouse uPAR on the surface of NCTC L929 …
Test: FACS, NCTC L929 mouse cells, mAb 6.25 µg/ml
Description: (§4) To make the mouse cross-reactivity results conclusive, direct binding of the mAbs to cell-bound mouse uPAR was measured using FACS analysis. The mouse cell line derived from the connective tissue, NCTC L929, was employed for FACS analysis. The harvested cells were resuspended at 50,000 cells/well using FACS buffer into a V-bottom plate which was put on ice. […] After washing, Cy5-labeled goat anti-human IgG Fc at 5 μg/ml and 7AAD at 5 μg/ml was added. The mixtures were incubated for 15 min on ice, washed and resuspended in cold FACS buffer for FACS analysis.

In order of rising “X Geo Mean” value:
1. B1  8.92
2. B8  9.59
3. B5  9.7
4. B6  9.89
5. B7  10.2
6. B2  11.2
7. B4  12.4

Molecular target: T5, soluble recombinant human uPAR/His6 …
Test: low resolution Biacore, mAb captured by goat anti-human, hu-uPAR 312 nM;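 also: surface plasmon resonance on a CM5 chip with goat anti-human antibody surface made by amine coupling, each mAb from supernatant captured per flow cell, kinetics fitted including mass transport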
Description: as §2
A mass transport coefficient was used in fitting the data.

In order of rising Kd:
1. B1  2.2 nM
2. B6  2.3 nM
3. B5  2.7 nM
4. B3  3.1 nM
5. B8  3.9 nM
6. B7  4.6 nM
7. B4  8.7 nM
8. B2  12.6 nM

In order of falling koff:
1. B2  0.0012 s⁻¹
2. B4  0.00096 s⁻¹
3. B1  0.00026 s⁻¹
4. B5  0.00025 s⁻¹
5. B6  0.00017 s⁻¹
6. B7  0.00013 s⁻¹
7. B8  0.00013 s⁻¹
8. B3  6.8e-05 s⁻¹

In order of falling kon:
1. B1  120000 M⁻¹ s⁻¹
2. B4  110000 M⁻¹ s⁻¹
3. B2  95000 M⁻¹ s⁻¹
4. B5  94000 M⁻¹ s⁻¹
5. B6  75000 M⁻¹ s⁻¹
6. B8  33000 M⁻¹ s⁻¹
7. B7  28000 M⁻¹ s⁻¹
8. B3  22000 M⁻¹ s⁻¹

Molecular target: T4, human urokinase-type plasminogen …
Test: FACS competition, FITC-tc-uPA on L929 cells expressing human uPAR, supernatant 1:2
Excerpt: as §3

In order of rising “uPA/uPAR binding Inhibition %” value:
1. B1  67%
2. B4  69%
3. B5  69%
4. B3  70%
5. B8  74%
6. B7  75%
7. B6  78%
8. B2  78%

Molecular target: T3, mouse uPAR on the surface of NCTC L929 …
Test: FACS, NCTC L929 mouse cells
Description: as §4

B4: no binding (tested: 6.25 µg/ml).
B5: no binding (tested: 6.25 µg/ml).
B6: no binding (tested: 6.25 µg/ml).
B7: no binding (tested: 6.25 µg/ml).
B1: no binding (tested: 6.25 µg/ml).
B2: no binding (tested: 6.25 µg/ml).
B8: no binding (tested: 6.25 µg/ml).
